# Assay: soluble on expression in E. coli; label from the status in PepcDB or PDB records
row,Sequence,soluble on expression in E. coli
1,MLEELTLERFLSHRSAFSLVIDVRSPHEYLESHLPGALNLPVLSDLEHERVGTLYKESPFEARILGASLICANIASALSWLKDSLHPSQKVLIYCARGGQRSLSLALILSSIGYQIARLIGGYKGYRAHVAASWQVPRKESFLTLVGPTGGGKSELIQSLSWSLDIEGLARHKGSSFGAIEGEQPSTKMFQNLLFERLLGLREEPLVAVEGESKRLGNLILPSPLYERYKSAPKVFIDSPLEARIDRTMQEYASISPAFFEGAMQKIARYMNKEAHKAASLAFWQGDLRRCAELLLVEYYDKVYKMEPCEYTILHTSKESTLKELERIKGEILSSVRE,not soluble
2,MNGYIINIRYQQMGRVIYMFFFAIFGIQDKNKHIGNCNNIVCPSCGRLSMYEVYKYYKYFHIFFLPIFKWDVRYIVKTSCCGCLYELDPLVGKEFEKNPSTEIREENLQRIDRYSPFKYCSNCRTEVPVEYSYCPYCGERLLEHHHHHH,not soluble
3,MSLAKNVNASVEETFKKSGIPVKVDKSNGQVTFGEKTMFDVDSDVLKPEAKEMLKMFVPKYIETIYKDYGDYISKIVIEGHTDDVGSYIYNLDLSQRRAYSVAKFIVGDEIGDYKYKDKVTKHIIAIGRSKAELIKNGDNSVNRDASRRVELKYEININQNKEGHHHHHH,soluble
4,MGSDKIHHHHHHMSDKFGEGRDPYLYPGLDIMRNRLNIRQQQRLEQAAYEMTALRAATIELGPLVRGLPHLRTIHRQLYQDIFDWAGQLREVDIYQGDTPFCHFAYIEKEGNALMQDLEEEGYLVGLEKAKFVERLAHYYCEINVLHPFRVGSGLAQRIFFEQLAIHAGYQLSWQGIEKEAWNQANQSGAMGDLTALQMIFSKVVSEAGESE,not soluble
5,MEVSKIRIHDLPEEERPRERLIKNGPESLSNAELLGIVLRTGSREENVISLCSRILMEYNIKQLSLANVSKLMQVNGIGKAKAAQIAAVFELARRLETFVEEPKRKISSPKDVYTLMYPKMREQKKEKFITLYLDTKNQILKEEVVSIGSLNASIVHPREVFKSALMESSASVIMVHNHPSGDPSPSREDIMVTEKLVEGGKLLGIDILDHIIIGDGRYVSLKDEGFVK,not soluble
6,GPGSMRGKTKKRKIYKRFSSLPKTETSTLPTVHSHTTCIRVQHVSHHLHAYICTLVSGMSHHRMWPSPITPSRTDATTTTTKTTTKNDTYSPHKKNTNTPHAKGRSYIVNLCHSFYSPTGDETVIWVTNVVRSCAAKYNYIPHILHSHETLVKRRCNENAANEKCLIRC,not soluble
7,MSSLGNQSEKNSNNKFSDNVPLAQHEIWKEKYESLVTEHENLVKEHETLIKTLELIEKHEITLEDLVKKKQREALVGKEEIEKFDKEIGERKKMQEMLDKDLEYLKSCEETVMNGMSSGPSGARVADKRNVNKFESQEGNFKCFLICV,not soluble
8,MGHHHHHHENLYFQSHLYFQSHMTDCEFGYIYRLAQDYLQCVLQIPQPGSGPSKTSRVLQNVAFSVQKEVEKNLKSCLDNVNVVSVDTARTLFNQVMEKEFEDGIINWGRIVTIFAFEGILIKKLLRQQIAPDVDTYKEISYFVAEFIMNNTGEWIRQNGGWENGFVKKFEPK,soluble
9,MMKFSVIVPTYNSEKYITELLNSLAKQDFPKTEFEVVVVDDCSTDQTLQIVEKYRNKLNLKVSQLETNSGGPGKPRNVALKQAEGEFVLFVDSDDYINKETLKDAAAFIDEHHSDVLLIKMKGVNGRGVPQSMFKETAPEVTLLNSRIIYTLSPTKIYRTALLKDNDIYFPEELKSAEDQLFTMKAYLNANRISVLSDKAYYYATKREGEHMSSAYVSPEDFYEVMRLIAVEILNADLEEAHKDQILAEFLNRHFSFSRTNGFSLKVKLEEQPQWINALGDFIQAVPERVDALVMSKLRPLLHYARAKDIDNYRTVEESYRQGQYYRFDIVDGKLNIQFNEGEPYFEGIDIAKPKVKMTAFKFDNHKIVTELTLNEFMIGEGHYDVRLKLHSRNKKHTMYVPLSVNANKQYRFNIMLEDIKAYLPKEKIWDVFLEVQIGTEVFEVRVGNQRNKYAYTAETSALIHLNNDFYRLTPYFTKDFNNISLYFTAITLTDSISMKLKGKNKIILTGLDRGYVFEEGMASVVLKDDMIMGMLSQTSENEVEILLSKDIKKRDFKNIVKLNTAHMTYSLKLEHHHHHH,soluble
10,MVDIEIWLRLMSISSLYGDDMVRIAHWLAKQSHIDAVVLQQTGLTLRQAQRFLSFPRKSIESSLCWLEQPNHHLIPADSEFYPPQLQATTDYPGALFVEGELHALHSFQLAVVGSRAHSWYGERWGRLFCETLATCGVTITSGLARGIDGVVHKAALQVNGVSIAVLGNGLNTIHPRRHARLAASLFEQGGALVSEFPLDVPPLAYNFPRRNRIISGLSKGVLVVEAALRSGSLVTARCALEQGREVFALPGPIGNPGSEGPHWLIKQGAILVTEPEEILENLQFGLHWLPDAPENSFYSPDQQDVALPFPELLANVGDEVTPVDVVAERAGQPVPEVVTQLLELELAGWIAAVPGGYVRLRRACHVRRTNVFV,not soluble
11,MESFIDRITEETDENFRICRENIPNFETTISPLLNTMKNIKLLLDDAAFDQQKLENNCEETCMNCTKSQLNDFLGIKVEASTIVDVKSQLVPQSKESSALVETNEPNEQGLSSKPKENDIRIVPQITDEEFKTIPKYQLGRLTLEMMNEIVSKMDDFLMKKSKILGKTNKQLTRSDREVLDNWRELEMKARKRLPTTLFFIETDIRPMLQDRLRPSFAKAIPCLRHIRRIREERCGPLTFYYP,not soluble
12,KDLKIVMLTDIHLGKNLHENFLDKLITKVNLQSPDMVVIVGDLIDTNPKDLKNYISKLNDFNSTYGTFYALGNHEYYHGINEVLDLLRKHTNMKILVNQNLDLGFIDIAGLGDLAGLDRGLYAPDLARIKVDLNTSKASILLTHQPKTALLYDLSDFDLVLSGHTHGGQIFPFMFLV,not soluble
13,MGSDKIHHHHHHMRMTTDKKQGKSRELDLFITDLNGNLRGKRLPASGLKKLRKEGLKLPLSVVGFDFWGADVLDNGLVFETGDSDGVCMPVSQEPIPVPWSEAPRDQMLAMMFNPDGTPFGADPRQVLNRMVDRFSAKGLTPVLATELEFYLMDAESESVQRPIPPALADGKGRRLANAEGYSVEEMDGFEAFFADIREACQGQGIGADTIIAEMGPGQFEVNLNHVADPLNAGDQAILFKRLVRGVSRRHGYAATFMAKPYVEESGNGFHTHFSLLDRDGNNVFDDGTEQGSDLLRHAIAGMMQLMPESMLVFAPHLNSYRRFMPGAHAPTHASWGYENRTVALRVPESPNLARRIEHRVAGADANPYLVLASILAGALHGMENALEPDAPVEGDAYAEESPRYPLPCEWQDAIARFEQSEILREYLGEEFVRVYAQAKRQERRRLNERISDVEYEAYLGLL,not soluble
14,MEEQREALRKIIKTLAVKNEEIQSFIYSLKQMLLNVEANSAKVQEDLEAEFQSLFSLLEELKEGMLMKIKQDRASRTYELQNQLAACTRALESSEELLETANQTLQAMDSEDFPQAAKQIKDGVTMAPAFRLSLKAKVSDNMSHLMVDFAQERQMLQALKFLPVPSAPVIDLAESLVADNCVTLVWRMPDEDSKIDHYVLEYRRTNFEGPPRLKEDQPWMVIEGIRQTEYTLTGLKFDMKYMNFRVKACNKAVAGEFSEPVTLETPAFMFRLDASTSHQNLRVDDLSVEWDAMGGKVQDIKAREKDGKGRTASPINSPARGTPSPKRMPSGRGGRDRFTAESYTVLGDTLIDGGEHYWEVRYEPDSKAFGVGVAYRSLGRFEQLGKTAASWCLHVNNWLQVSFTAKHANKVKVLDAPVPDCLGVHCDFHQGLLSFYNARTKQVLHTFKTRFTQPLLPAFTVWCGSFQVTTGLQVPSAVRCLQKRGSATSSSNTSLT,soluble
15,MSLKIGFFIMNIGSAGGTERVSINVANALAKQGYDVSFISIGGNKPFFQVDEKINIYAMNKLPYSLKKDYFSITKKLRELVKELQLDTLIVVDGAIMLFSALALVNLNIKHILWEHYSFNFTGNRLVRTLGKYLAVTTCDKIVTLTEAEKTLWQEKFKTNNIISIANPNTLLPKNKLAKLENKTILSVGHLFSYKGFDYLLKVWQVLAKKYPDWNLKIVGSGEEEENLKNLAKALDIEDSVNFIPRTNDVSFYYESSSIYCLPSQTEGLPLVVIEAMAFGLPIVAFNCSPGVKQLVEHKENGFLCEQNNIEEMVKGLDLLINNPELYLQMSDKSRLMSEDYGIEKIIEEWKGILEGHHHHHH,soluble
16,MKQMNVVLIGGGTGLSVLARGLREFPIDITAIVTVADNGGSTGKIRDVMDIPAPGDIRNVIAALSDSESILTQLFQYRFGENQVDGHSLGNLVIAGMTNITNDFGHAIKELSKVLNIKGQVIPSTNASVQLNAVMEDGEIVHGETNIPKTHKKIDRVFLEPSDVEPMNEAIEALEQADLIVLGPGSLYTSVISNLCVKGISEALLRTSAPKLYVSNVMTQPGETDNYDVKEHIDALTRQVGEPFIDFVICSSESYSKDVLQRYEEKNSKPVAVHKEQLKDSGIRVLTASNLVEISNEHYVRHNTKVLSKMIYELALELTSTIRFTPSDKKKMAGDPLEHHHHHH,soluble
17,PRRGAVAHANSIVQQLVSEGADISHTRNMLRNAMNGDAVAFSRVEQNIFRQHFPNMPMHGISRDSELAIELRGALRRAVHQQAAS,soluble
18,MEGLTPEMQREAEALRREWETNPRWKGVRRDYRPEDVVRLRPSVMVEYTLAKRGAEKLWKLLHERPYVHTFGAYTGAMAVEMVRAGLEAIYLSGWQVAADANLAWQTYPDQSLYPYNSVPQIVKRINNALMRADQVERIEGRVTRDWYVPIVADAEAGFGGALNVFELTKAMIEAGAAGIHYEDQLASEKKCGHLGGKVLVPTGQHIRTLQAARLAADVMGVPTVIIARTDAEAATLITSDIDERDKPFILPDERTPEGFYRFKNGIEAGIARALAYAPYADVIWMETSKPDLEEARKFAEAVKKEFPDKLLAYNLSPSFNWKKFLDDETIAKFNRELGEMGYKFQFITLAGWHALNYYIWELAKGYKERGMPAFVELQQKEFAAQKEGFTAVKHQREVGAGYFDEVVLALTQGQASTLALKGSTEEAQFNEPVH,soluble
19,MSLDLKRLKGSERVRKRVSVMMGSDDIRGCQHTLFEIVSNSIDRHRKGFGNYIKVIKHEDLSYTIIDHADGLPMDWNEKEHAYNWDLALKVLYAGDNYDANSTALGLNGLGLCSSQYASEFMEVISYKEDKKYTVKCKKGRPIDKETGEFICEDDDNLFTKEQGNRVLLVESNTENKTGTYIHYKPDLEVFTNIDISIDWINDKLDKQSMVNKGLKIEIYDEKEDRLYTHFYESGIKDYIKTISNDNNFSDVIYFTDKGKGRDKADKPEYDYNYEIALVFNNEINRLEYYHNSSELLQGGSTSDAISLAFTYAINEYAKNNNVFNKNESKIKFTDIQDSLICVISSFSTMTSYANQTKLSIDNKFIKDFTNQSLKEKLKLYFIENKLEADRIVNQILINKRANDKAEKSKIEIRNKEGHHHHHH,soluble
20,MIYTLENQHLKISLSNHGGELHSIKGKKDNTEFLWSGDEAYWKYHAPILFPIVGKVFNGKYTVDGITYELPQHGLARVRDFEMIEQTKNSISFELKYSEDTLKVYPFKFSLIIKYTLNDINLSIDYIVKNLDNKEMYFSIGAHPAFMCPIENDKFDDYYFEFNKKENASIMQLVGPGYFSKEEKPYLKDEHIINLSTDLFKNDALVFKNLKSNKISLKSKNHKKYLEFDFGEFPYLGLWTKDTGAPFVCIEPWFGHADFDGFNGEFKDKAAIQSLMPNKEFHCNYNISFFELEHHHHHH,soluble
